Values joined by “and” are separate entries in the source; they are usually repeats but may differ in a detail not shown here. Equal values may be shown once.
target: HRgpA-6H (Porphyromonas gingivalis) (UniProt P28784); assay: ELISA, Fab FASEBA supernatant on coated HRgpA-6H (0.0625 ug/ml)
Chain of UniProt P28784 (P28784 228-991 limits assumed): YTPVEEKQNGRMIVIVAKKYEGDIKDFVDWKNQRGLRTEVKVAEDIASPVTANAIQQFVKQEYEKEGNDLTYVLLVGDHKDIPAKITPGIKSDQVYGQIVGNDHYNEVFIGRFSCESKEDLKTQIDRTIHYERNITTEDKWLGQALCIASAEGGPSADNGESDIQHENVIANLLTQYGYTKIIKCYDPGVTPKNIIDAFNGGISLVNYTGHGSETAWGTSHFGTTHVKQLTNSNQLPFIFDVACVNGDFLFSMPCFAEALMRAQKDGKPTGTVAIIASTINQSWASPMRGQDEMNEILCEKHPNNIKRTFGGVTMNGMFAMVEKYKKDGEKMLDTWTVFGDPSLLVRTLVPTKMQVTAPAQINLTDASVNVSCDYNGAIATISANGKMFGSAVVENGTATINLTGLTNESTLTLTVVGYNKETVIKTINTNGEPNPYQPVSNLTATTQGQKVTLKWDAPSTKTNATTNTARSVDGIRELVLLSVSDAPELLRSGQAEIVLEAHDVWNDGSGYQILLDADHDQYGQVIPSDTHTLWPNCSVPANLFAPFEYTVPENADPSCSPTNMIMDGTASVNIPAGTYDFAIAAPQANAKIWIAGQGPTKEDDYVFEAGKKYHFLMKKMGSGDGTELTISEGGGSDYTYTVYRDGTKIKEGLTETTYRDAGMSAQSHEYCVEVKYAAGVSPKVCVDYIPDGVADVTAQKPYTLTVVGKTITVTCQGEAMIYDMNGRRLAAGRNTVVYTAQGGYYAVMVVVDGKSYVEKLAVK

Binder | OD450nm | Ratio OD(Variant)/OD(WT)
KB001 parental mouse Fab VH variant G99C (Fab, V domains shown) VH: EVQLKQSGPGLVAPSQSLSITCTVSGFSLSIYSVHWVRQPPGKGLEWLGMIWGGGSSDYNSALKSRLSISKDNSKSQVFLKMNSLQTDDTAMYYCARNCNFYAMDYWGQGTSVTVSS VL: QIVLTQSPAIMSASLGERVTMTCTASSSVSSSFLHWYQQKPGSSPQLWIYSTSNLASGVPARFSGSGSGTSYSLTISSMEAEDAATYYCHQYHHSPYIYTFGGGTKLEIK | 0.776 | 0.974
KB001 parental mouse Fab VH variant F101S (Fab, V domains shown) VH: EVQLKQSGPGLVAPSQSLSITCTVSGFSLSIYSVHWVRQPPGKGLEWLGMIWGGGSSDYNSALKSRLSISKDNSKSQVFLKMNSLQTDDTAMYYCARNGNSYAMDYWGQGTSVTVSS VL: QIVLTQSPAIMSASLGERVTMTCTASSSVSSSFLHWYQQKPGSSPQLWIYSTSNLASGVPARFSGSGSGTSYSLTISSMEAEDAATYYCHQYHHSPYIYTFGGGTKLEIK | 0.678 and 0.725 | 0.8 and 0.856
KB001 parental mouse Fab VH variant A103G (Fab, V domains shown) VH: EVQLKQSGPGLVAPSQSLSITCTVSGFSLSIYSVHWVRQPPGKGLEWLGMIWGGGSSDYNSALKSRLSISKDNSKSQVFLKMNSLQTDDTAMYYCARNGNFYGMDYWGQGTSVTVSS VL: QIVLTQSPAIMSASLGERVTMTCTASSSVSSSFLHWYQQKPGSSPQLWIYSTSNLASGVPARFSGSGSGTSYSLTISSMEAEDAATYYCHQYHHSPYIYTFGGGTKLEIK | 0.815 and 0.804 and 0.755 | 0.945 and 0.933 and 0.876
KB001 parental mouse Fab VH variant N100S (Fab, V domains shown) VH: EVQLKQSGPGLVAPSQSLSITCTVSGFSLSIYSVHWVRQPPGKGLEWLGMIWGGGSSDYNSALKSRLSISKDNSKSQVFLKMNSLQTDDTAMYYCARNGSFYAMDYWGQGTSVTVSS VL: QIVLTQSPAIMSASLGERVTMTCTASSSVSSSFLHWYQQKPGSSPQLWIYSTSNLASGVPARFSGSGSGTSYSLTISSMEAEDAATYYCHQYHHSPYIYTFGGGTKLEIK | 0.799 and 0.844 and 0.805 | 0.943 and 0.996 and 0.95
KB001 parental mouse Fab VH variant N100C (Fab, V domains shown) VH: EVQLKQSGPGLVAPSQSLSITCTVSGFSLSIYSVHWVRQPPGKGLEWLGMIWGGGSSDYNSALKSRLSISKDNSKSQVFLKMNSLQTDDTAMYYCARNGCFYAMDYWGQGTSVTVSS VL: QIVLTQSPAIMSASLGERVTMTCTASSSVSSSFLHWYQQKPGSSPQLWIYSTSNLASGVPARFSGSGSGTSYSLTISSMEAEDAATYYCHQYHHSPYIYTFGGGTKLEIK | 0.688 | 0.812
KB001 parental mouse Fab VH variant N100P (Fab, V domains shown) VH: EVQLKQSGPGLVAPSQSLSITCTVSGFSLSIYSVHWVRQPPGKGLEWLGMIWGGGSSDYNSALKSRLSISKDNSKSQVFLKMNSLQTDDTAMYYCARNGPFYAMDYWGQGTSVTVSS VL: QIVLTQSPAIMSASLGERVTMTCTASSSVSSSFLHWYQQKPGSSPQLWIYSTSNLASGVPARFSGSGSGTSYSLTISSMEAEDAATYYCHQYHHSPYIYTFGGGTKLEIK | 0.757 | 0.894
KB001 parental mouse Fab VH variant N100E (Fab, V domains shown) VH: EVQLKQSGPGLVAPSQSLSITCTVSGFSLSIYSVHWVRQPPGKGLEWLGMIWGGGSSDYNSALKSRLSISKDNSKSQVFLKMNSLQTDDTAMYYCARNGEFYAMDYWGQGTSVTVSS VL: QIVLTQSPAIMSASLGERVTMTCTASSSVSSSFLHWYQQKPGSSPQLWIYSTSNLASGVPARFSGSGSGTSYSLTISSMEAEDAATYYCHQYHHSPYIYTFGGGTKLEIK | 0.823 | 0.972
KB001 parental mouse Fab VH variant N100R (Fab, V domains shown) VH: EVQLKQSGPGLVAPSQSLSITCTVSGFSLSIYSVHWVRQPPGKGLEWLGMIWGGGSSDYNSALKSRLSISKDNSKSQVFLKMNSLQTDDTAMYYCARNGRFYAMDYWGQGTSVTVSS VL: QIVLTQSPAIMSASLGERVTMTCTASSSVSSSFLHWYQQKPGSSPQLWIYSTSNLASGVPARFSGSGSGTSYSLTISSMEAEDAATYYCHQYHHSPYIYTFGGGTKLEIK | 0.788 | 0.93
KB001 parental mouse Fab VH variant N100F (Fab, V domains shown) VH: EVQLKQSGPGLVAPSQSLSITCTVSGFSLSIYSVHWVRQPPGKGLEWLGMIWGGGSSDYNSALKSRLSISKDNSKSQVFLKMNSLQTDDTAMYYCARNGFFYAMDYWGQGTSVTVSS VL: QIVLTQSPAIMSASLGERVTMTCTASSSVSSSFLHWYQQKPGSSPQLWIYSTSNLASGVPARFSGSGSGTSYSLTISSMEAEDAATYYCHQYHHSPYIYTFGGGTKLEIK | 0.779 | 0.92
KB001 parental mouse Fab VH variant N100K (Fab, V domains shown) VH: EVQLKQSGPGLVAPSQSLSITCTVSGFSLSIYSVHWVRQPPGKGLEWLGMIWGGGSSDYNSALKSRLSISKDNSKSQVFLKMNSLQTDDTAMYYCARNGKFYAMDYWGQGTSVTVSS VL: QIVLTQSPAIMSASLGERVTMTCTASSSVSSSFLHWYQQKPGSSPQLWIYSTSNLASGVPARFSGSGSGTSYSLTISSMEAEDAATYYCHQYHHSPYIYTFGGGTKLEIK | 0.801 and 0.791 | 0.946 and 0.934
KB001 parental mouse Fab VH variant N100T (Fab, V domains shown) VH: EVQLKQSGPGLVAPSQSLSITCTVSGFSLSIYSVHWVRQPPGKGLEWLGMIWGGGSSDYNSALKSRLSISKDNSKSQVFLKMNSLQTDDTAMYYCARNGTFYAMDYWGQGTSVTVSS VL: QIVLTQSPAIMSASLGERVTMTCTASSSVSSSFLHWYQQKPGSSPQLWIYSTSNLASGVPARFSGSGSGTSYSLTISSMEAEDAATYYCHQYHHSPYIYTFGGGTKLEIK | 0.756 and 0.783 | 0.893 and 0.924
KB001 parental mouse Fab VH variant N100Q (Fab, V domains shown) VH: EVQLKQSGPGLVAPSQSLSITCTVSGFSLSIYSVHWVRQPPGKGLEWLGMIWGGGSSDYNSALKSRLSISKDNSKSQVFLKMNSLQTDDTAMYYCARNGQFYAMDYWGQGTSVTVSS VL: QIVLTQSPAIMSASLGERVTMTCTASSSVSSSFLHWYQQKPGSSPQLWIYSTSNLASGVPARFSGSGSGTSYSLTISSMEAEDAATYYCHQYHHSPYIYTFGGGTKLEIK | 0.846 | 0.999
KB001 parental mouse Fab VH variant N100G (Fab, V domains shown) VH: EVQLKQSGPGLVAPSQSLSITCTVSGFSLSIYSVHWVRQPPGKGLEWLGMIWGGGSSDYNSALKSRLSISKDNSKSQVFLKMNSLQTDDTAMYYCARNGGFYAMDYWGQGTSVTVSS VL: QIVLTQSPAIMSASLGERVTMTCTASSSVSSSFLHWYQQKPGSSPQLWIYSTSNLASGVPARFSGSGSGTSYSLTISSMEAEDAATYYCHQYHHSPYIYTFGGGTKLEIK | 0.769 and 0.814 | 0.908 and 0.961
KB001 parental mouse Fab VH variant F101W (Fab, V domains shown) VH: EVQLKQSGPGLVAPSQSLSITCTVSGFSLSIYSVHWVRQPPGKGLEWLGMIWGGGSSDYNSALKSRLSISKDNSKSQVFLKMNSLQTDDTAMYYCARNGNWYAMDYWGQGTSVTVSS VL: QIVLTQSPAIMSASLGERVTMTCTASSSVSSSFLHWYQQKPGSSPQLWIYSTSNLASGVPARFSGSGSGTSYSLTISSMEAEDAATYYCHQYHHSPYIYTFGGGTKLEIK | 0.825 and 0.828 and 0.802 | 0.974 and 0.978 and 0.947
KB001 parental mouse Fab VH variant F101L (Fab, V domains shown) VH: EVQLKQSGPGLVAPSQSLSITCTVSGFSLSIYSVHWVRQPPGKGLEWLGMIWGGGSSDYNSALKSRLSISKDNSKSQVFLKMNSLQTDDTAMYYCARNGNLYAMDYWGQGTSVTVSS VL: QIVLTQSPAIMSASLGERVTMTCTASSSVSSSFLHWYQQKPGSSPQLWIYSTSNLASGVPARFSGSGSGTSYSLTISSMEAEDAATYYCHQYHHSPYIYTFGGGTKLEIK | 0.681 | 0.804
KB001 parental mouse Fab VH variant N100I (Fab, V domains shown) VH: EVQLKQSGPGLVAPSQSLSITCTVSGFSLSIYSVHWVRQPPGKGLEWLGMIWGGGSSDYNSALKSRLSISKDNSKSQVFLKMNSLQTDDTAMYYCARNGIFYAMDYWGQGTSVTVSS VL: QIVLTQSPAIMSASLGERVTMTCTASSSVSSSFLHWYQQKPGSSPQLWIYSTSNLASGVPARFSGSGSGTSYSLTISSMEAEDAATYYCHQYHHSPYIYTFGGGTKLEIK | 0.796 and 0.833 | 0.94 and 0.983
KB001 parental mouse Fab VH variant F101M (Fab, V domains shown) VH: EVQLKQSGPGLVAPSQSLSITCTVSGFSLSIYSVHWVRQPPGKGLEWLGMIWGGGSSDYNSALKSRLSISKDNSKSQVFLKMNSLQTDDTAMYYCARNGNMYAMDYWGQGTSVTVSS VL: QIVLTQSPAIMSASLGERVTMTCTASSSVSSSFLHWYQQKPGSSPQLWIYSTSNLASGVPARFSGSGSGTSYSLTISSMEAEDAATYYCHQYHHSPYIYTFGGGTKLEIK | 0.755 | 0.891
KB001 parental mouse Fab VH variant N100A (Fab, V domains shown) VH: EVQLKQSGPGLVAPSQSLSITCTVSGFSLSIYSVHWVRQPPGKGLEWLGMIWGGGSSDYNSALKSRLSISKDNSKSQVFLKMNSLQTDDTAMYYCARNGAFYAMDYWGQGTSVTVSS VL: QIVLTQSPAIMSASLGERVTMTCTASSSVSSSFLHWYQQKPGSSPQLWIYSTSNLASGVPARFSGSGSGTSYSLTISSMEAEDAATYYCHQYHHSPYIYTFGGGTKLEIK | 0.809 | 0.955
KB001 parental mouse Fab VH variant N100Y (Fab, V domains shown) VH: EVQLKQSGPGLVAPSQSLSITCTVSGFSLSIYSVHWVRQPPGKGLEWLGMIWGGGSSDYNSALKSRLSISKDNSKSQVFLKMNSLQTDDTAMYYCARNGYFYAMDYWGQGTSVTVSS VL: QIVLTQSPAIMSASLGERVTMTCTASSSVSSSFLHWYQQKPGSSPQLWIYSTSNLASGVPARFSGSGSGTSYSLTISSMEAEDAATYYCHQYHHSPYIYTFGGGTKLEIK | 0.757 and 0.784 and 0.699 | 0.894 and 0.926 and 0.825
KB001 parental mouse Fab VH variant N100L (Fab, V domains shown) VH: EVQLKQSGPGLVAPSQSLSITCTVSGFSLSIYSVHWVRQPPGKGLEWLGMIWGGGSSDYNSALKSRLSISKDNSKSQVFLKMNSLQTDDTAMYYCARNGLFYAMDYWGQGTSVTVSS VL: QIVLTQSPAIMSASLGERVTMTCTASSSVSSSFLHWYQQKPGSSPQLWIYSTSNLASGVPARFSGSGSGTSYSLTISSMEAEDAATYYCHQYHHSPYIYTFGGGTKLEIK | 0.817 and 0.736 and 0.789 | 0.965 and 0.869 and 0.932

Reference: US20230365662A1
